Here are results for eight molecules from PMC3148250, “Structural Basis for Sequence Specific DNA Binding and Protein Dimerization of HOXA13”.

The target in data set [1] is T1, A13DBD V373G (mouse (murine), UniProt Q62424 320-386, V373G). Put plainly: competition; 50 nM already competes with consensus; 4 uM protein; FA: 20 mM Tris pH 7.5, 80 mM KCl, 10 mM MgCl2, 0.2 mM EDTA, 1 mM DTT, 15 C, 1 nM DNA; NMR complex: 20 mM NaPO4 pH 6.0, 5 mM MgCl2, 10% D2O, 310 K; ITC buffer not given in the material. The note with it: protein: recombinant; tags: His-tag removed by thrombin; hairpin (self-annealing).
T1 sequence (Q62424 320-386 V373G): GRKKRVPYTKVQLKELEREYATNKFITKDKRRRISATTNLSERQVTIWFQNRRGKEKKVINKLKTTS

The next data set concerns the target A13DBD F344A (mouse (murine), UniProt Q62424 320-386, F344A). Put plainly: ITC; does not affect DNA binding; FA: 20 mM Tris pH 7.5, 80 mM KCl, 10 mM MgCl2, 0.2 mM EDTA, 1 mM DTT, 15 C, 1 nM DNA; NMR complex: 20 mM NaPO4 pH 6.0, 5 mM MgCl2, 10% D2O, 310 K; ITC buffer not given in the material. The note with it: protein: recombinant; tags: His-tag removed by thrombin; blunt. (In general: In ITC the heat of successive injections is recorded.)

The next data set deals with A13DBD N370A (mouse (murine), UniProt Q62424 320-386, N370A). Put plainly: ITC; text says ~1000-fold lower affinity; FA: 20 mM Tris pH 7.5, 80 mM KCl, 10 mM MgCl2, 0.2 mM EDTA, 1 mM DTT, 15 C, 1 nM DNA; NMR complex: 20 mM NaPO4 pH 6.0, 5 mM MgCl2, 10% D2O, 310 K; ITC buffer not given in the material. The note with it: protein: recombinant; tags: His-tag removed by thrombin; blunt.
Chain of A13DBD N370A (Q62424 320-386 N370A): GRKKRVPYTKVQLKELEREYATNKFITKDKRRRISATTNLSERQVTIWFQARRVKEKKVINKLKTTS

The target in data set [2] is T2, A13DBD WT (mouse (murine), UniProt Q62424 320-386). Put plainly: ITC; FA: 20 mM Tris pH 7.5, 80 mM KCl, 10 mM MgCl2, 0.2 mM EDTA, 1 mM DTT, 15 C, 1 nM DNA; NMR complex: 20 mM NaPO4 pH 6.0, 5 mM MgCl2, 10% D2O, 310 K; ITC buffer not given in the material. To be noted: protein: recombinant, tags: His-tag removed by thrombin.
T2 sequence (Q62424 320-386): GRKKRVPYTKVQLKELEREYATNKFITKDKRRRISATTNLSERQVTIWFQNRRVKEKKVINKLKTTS
Another data set has as its target A13DBD I366A (mouse (murine), UniProt Q62424 320-386, I366A). Described as above. To be noted: protein: recombinant; tags: His-tag removed by thrombin; blunt.
The next data set concerns the target A13DBD V373A (mouse (murine), UniProt Q62424 320-386, V373A). The description is as above. To be noted: protein: recombinant; tags: His-tag removed by thrombin; blunt.
The target in data set [3] is T1, A13DBD V373G. Put plainly: ITC; text says 3-4-fold lower affinity; FA: 20 mM Tris pH 7.5, 80 mM KCl, 10 mM MgCl2, 0.2 mM EDTA, 1 mM DTT, 15 C, 1 nM DNA; NMR complex: 20 mM NaPO4 pH 6.0, 5 mM MgCl2, 10% D2O, 310 K; ITC buffer not given in the material. To be noted: protein: recombinant; tags: His-tag removed by thrombin; blunt.
Data set [4] deals with T2, A13DBD WT. Put plainly: fluorescence anisotropy; 10 mM MgCl2; FA: 20 mM Tris pH 7.5, 80 mM KCl, 10 mM MgCl2, 0.2 mM EDTA, 1 mM DTT, 15 C, 1 nM DNA; NMR complex: 20 mM NaPO4 pH 6.0, 5 mM MgCl2, 10% D2O, 310 K; ITC buffer not given in the material. The note with it: protein: recombinant; tags: His-tag removed by thrombin; label: 5' 6-FAM via hexyl linker; hairpin (self-annealing). On the technique in general: In fluorescence polarisation assays a small probe gives low polarisation when free and higher when bound to something large.

The target in data set [5] is T1, A13DBD V373G. Put plainly: ITC; FA: 20 mM Tris pH 7.5, 80 mM KCl, 10 mM MgCl2, 0.2 mM EDTA, 1 mM DTT, 15 C, 1 nM DNA; NMR complex: 20 mM NaPO4 pH 6.0, 5 mM MgCl2, 10% D2O, 310 K; ITC buffer not given in the material. To be noted: protein: recombinant; tags: His-tag removed by thrombin; C5-A5* mismatch with strand 2 as printed.
In data set [6] the target is T1, A13DBD V373G. Put plainly: fluorescence anisotropy; 10 mM MgCl2; FA: 20 mM Tris pH 7.5, 80 mM KCl, 10 mM MgCl2, 0.2 mM EDTA, 1 mM DTT, 15 C, 1 nM DNA; NMR complex: 20 mM NaPO4 pH 6.0, 5 mM MgCl2, 10% D2O, 310 K; ITC buffer not given in the material. To be noted: protein: recombinant; tags: His-tag removed by thrombin; label: 5' 6-FAM via hexyl linker; hairpin (self-annealing).

In data set [7] the target is T2, A13DBD WT. Put plainly: fluorescence anisotropy; 10 mM MgCl2; text fold changes suggest T6*C and T6*U swapped; FA: 20 mM Tris pH 7.5, 80 mM KCl, 10 mM MgCl2, 0.2 mM EDTA, 1 mM DTT, 15 C, 1 nM DNA; NMR complex: 20 mM NaPO4 pH 6.0, 5 mM MgCl2, 10% D2O, 310 K; ITC buffer not given in the material. The note with it: protein: recombinant; tags: His-tag removed by thrombin; label: 5' 6-FAM via hexyl linker; hairpin (self-annealing).

Chain of A13DBD F344A (Q62424 320-386 F344A): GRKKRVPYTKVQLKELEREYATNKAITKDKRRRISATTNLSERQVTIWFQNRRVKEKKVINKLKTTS
Chain of A13DBD I366A (Q62424 320-386 I366A): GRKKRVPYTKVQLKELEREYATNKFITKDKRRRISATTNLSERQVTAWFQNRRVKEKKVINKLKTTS
Chain of A13DBD V373A (Q62424 320-386 V373A): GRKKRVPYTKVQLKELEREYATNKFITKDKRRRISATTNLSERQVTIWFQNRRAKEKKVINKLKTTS

B1: Scrambled (structured_DNA)
DNA: TGACTGACTGACTGCCCCCCAGTCAG
With B1, in the data set with A13DBD V373G [1], the binding result is listed as “binds”.

B2: 11-mer duplex WT (dsDNA)
DNA 1: CAAATAAAATC
DNA 2: GATTTTATTTG
Turning to B2, the binding result in the data set with A13DBD F344A is recorded as “binds”. In addition, the Kd worked out at 862 nM in the data set with A13DBD N370A; 7.5 nM with A13DBD WT [2] (blunt); 43.7 nM in the data set with A13DBD I366A; 18.7 nM with A13DBD V373A; 137 nM in the data set with A13DBD V373G [3].

B3: FA T5U (structured_DNA)
DNA: CAAAUAAATCCCCCATTTTATTGTG
modifications: deoxyuridine at position 5
As to B3, in the data set with A13DBD WT [4], the Kd amounted to 4.01 ± 0.28 nM.

B4: 11-mer T5U (dsDNA)
DNA 1: CAAAUAAAATC
DNA 2: GATTTTATTTG
modifications: deoxyuridine at T5 (DNA strand)
B4: the dissociation constant Kd with A13DBD WT [2] (blunt) amounted to 14.5 nM.

B5: 11-mer T5C (dsDNA)
DNA 1: CAAACAAAATC
DNA 2: GATTTTATTTG
With B5, the values for the Kd with A13DBD WT [2] (C5-A5* mismatch with strand 2 as printed) and in the data set with A13DBD V373G [5] were 286 nM and 617 nM, respectively.

B6: FA T5C (structured_DNA)
DNA: CAAACAAAATCCCCCATTTTGTTTG
As for B6, the Kd with A13DBD WT [4] was determined as 49.2 ± 4.97 nM; in the data set with A13DBD V373G [6] it was 616 ± 56.1 nM.

B7: FA T6*C (structured_DNA)
DNA: CAAATGAAATCCCCCATTTCATTG
Take B7: the Kd with A13DBD V373G [6] was 79.3 ± 6.93 nM; with A13DBD WT [7], 5.95 ± 0.64 nM.

B8: FA consensus (wt) (structured_DNA)
DNA: CAAATAAAATCCCCCATTTTATTTG
Take B8: the results for the Kd with A13DBD WT [4] and in the data set with A13DBD V373G [6] were 2.19 ± 0.06 nM and 56.6 ± 2.25 nM, respectively.

What is called Kd is a measure of binding affinity in units of concentration.
